Laboratory results reported in PMC2112059.

Biological target: Triton X-100-insoluble residue of platelets (platelet cytoskeleton) (human (endogenous in platelets)) (UniProt P60709)
Assay: co-sedimentation

Substance: platelet surface glycoprotein GPIII (from UniProt P05106 27-788) (natural protein)
- percent of radioactivity in the supernatant fraction, without m1: > 95%
